Measurements published in PMC4434323.

How the values were obtained:
[1] = target: T1, ceh-51 (Y80D3A.3) (Caenorhabditis elegans) (UniProt Q9U1R1)
T1 sequence: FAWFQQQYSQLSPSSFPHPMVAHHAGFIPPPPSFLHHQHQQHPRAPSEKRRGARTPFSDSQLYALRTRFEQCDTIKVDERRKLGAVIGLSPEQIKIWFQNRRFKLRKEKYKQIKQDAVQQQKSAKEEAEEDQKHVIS

[2] = target: T2, ceh-90 (R03E1.4) (Caenorhabditis elegans) (UniProt Q69YW8)
T2 sequence: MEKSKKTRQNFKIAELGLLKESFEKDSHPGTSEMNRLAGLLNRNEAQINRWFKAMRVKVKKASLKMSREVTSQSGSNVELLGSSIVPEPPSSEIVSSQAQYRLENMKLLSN

[3] = target: ceh-36 (C37E2.4) (Caenorhabditis elegans) (UniProt Q93352)
[4] = target: ceh-37 (C37E2.5) (Caenorhabditis elegans) (UniProt Q93356)
[5] = system: ceh-53 (C09G12.1) (Caenorhabditis elegans)
Chain of ceh-53 (C09G12.1) (Caenorhabditis elegans) (chain, as listed by the source): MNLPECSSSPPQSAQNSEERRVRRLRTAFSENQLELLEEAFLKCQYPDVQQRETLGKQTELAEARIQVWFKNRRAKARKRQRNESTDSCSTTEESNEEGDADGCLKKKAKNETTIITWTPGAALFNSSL

Chain of ceh-37 (C37E2.5) (Caenorhabditis elegans) (Q93356 1-148): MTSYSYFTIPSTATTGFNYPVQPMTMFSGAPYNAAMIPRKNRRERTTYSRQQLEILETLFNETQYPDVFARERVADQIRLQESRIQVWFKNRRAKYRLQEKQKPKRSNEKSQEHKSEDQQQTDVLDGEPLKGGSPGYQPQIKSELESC
Chain of ceh-36 (C37E2.4) (Caenorhabditis elegans) (Q93352 6-165): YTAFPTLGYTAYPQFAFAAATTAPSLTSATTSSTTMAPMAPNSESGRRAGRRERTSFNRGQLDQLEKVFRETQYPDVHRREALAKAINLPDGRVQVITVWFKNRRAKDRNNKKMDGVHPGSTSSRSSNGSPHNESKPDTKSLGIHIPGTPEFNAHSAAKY

With “ATTAATAA (double strand) [8-mer ATTAATAA]” the binding signal (PBM E-score (-0.5 to 0.5)) [1] was 0.474.

“ATTAAAAC (double strand) [8-mer ATTAAAAC]” gave a binding signal (PBM E-score (-0.5 to 0.5)) [2] of 0.487.

Sequence “ATTAATGA (double strand) [8-mer ATTAATGA]” has a binding signal (PBM E-score (-0.5 to 0.5)) [1] of 0.469.

Sequence “GTTAAAAC (double strand) [8-mer GTTAAAAC]” has a binding signal (PBM E-score (-0.5 to 0.5)) [2] of 0.492.

With “ATTAAGTG (double strand) [8-mer ATTAAGTG]” the binding signal (PBM E-score (-0.5 to 0.5)) [1] was 0.472.

With “AGTTTTAA (double strand) [8-mer AGTTTTAA]” the binding signal (PBM E-score (-0.5 to 0.5)) [2] was 0.492.

With “TAAAACCA (double strand) [8-mer TAAAACCA]” the binding signal (PBM E-score (-0.5 to 0.5)) [2] was 0.488.

For “TATTAATA (double strand) [8-mer TATTAATA]”, the binding signal (PBM E-score (-0.5 to 0.5)) [1] was 0.483.

For “ATTAATCC (double strand) [8-mer ATTAATCC]”, the binding signal (PBM E-score (-0.5 to 0.5)) [3] was 0.494, the binding signal (PBM E-score (-0.5 to 0.5)) [4] was 0.492 and the binding signal (PBM E-score (-0.5 to 0.5)) [5] was 0.495.

For “CTTAAAAC (double strand) [8-mer CTTAAAAC]”, the binding signal (PBM E-score (-0.5 to 0.5)) [2] was 0.494.

“CGGATTAA (double strand) [8-mer CGGATTAA]” was tested, and the binding signal (PBM E-score (-0.5 to 0.5)) [3] was 0.489, the binding signal (PBM E-score (-0.5 to 0.5)) [4] was 0.492 and the binding signal (PBM E-score (-0.5 to 0.5)) [5] was 0.494.

Work on “GGGTTTAA (double strand) [8-mer GGGTTTAA]” yielded a binding signal (PBM E-score (-0.5 to 0.5)) [2] of 0.487.

In the case of “GCACTTAA (double strand) [8-mer GCACTTAA]”, the binding signal (PBM E-score (-0.5 to 0.5)) [1] was 0.469.

For “GGTTTTTA (double strand) [8-mer GGTTTTTA]”, the binding signal (PBM E-score (-0.5 to 0.5)) [2] was 0.485.

Work on “AGTTTTAG (double strand) [8-mer AGTTTTAG]” yielded a binding signal (PBM E-score (-0.5 to 0.5)) [2] of 0.486.

Work on “AGGATTAA (double strand) [8-mer AGGATTAA]” yielded a binding signal (PBM E-score (-0.5 to 0.5)) [3] of 0.492, a binding signal (PBM E-score (-0.5 to 0.5)) [4] of 0.491 and a binding signal (PBM E-score (-0.5 to 0.5)) [5] of 0.494.

Sequence “CTAAAACC (double strand) [8-mer CTAAAACC]” has a binding signal (PBM E-score (-0.5 to 0.5)) [2] of 0.493.

“AAGGATTA (double strand) [8-mer AAGGATTA]” gave a binding signal (PBM E-score (-0.5 to 0.5)) [3] of 0.492, a binding signal (PBM E-score (-0.5 to 0.5)) [4] of 0.493 and a binding signal (PBM E-score (-0.5 to 0.5)) [5] of 0.495.

“ATATAATA (double strand) [8-mer ATATAATA]” gave a binding signal (PBM E-score (-0.5 to 0.5)) [1] of 0.472.

Sequence “ATTAATAG (double strand) [8-mer ATTAATAG]” has a binding signal (PBM E-score (-0.5 to 0.5)) [1] of 0.478.

Work on “GGGTTTTA (double strand) [8-mer GGGTTTTA]” yielded a binding signal (PBM E-score (-0.5 to 0.5)) [2] of 0.498.

With “TAATTACA (double strand) [8-mer TAATTACA]” the binding signal (PBM E-score (-0.5 to 0.5)) [1] was 0.467.

Sequence “AAGTTTTA (double strand) [8-mer AAGTTTTA]” has a binding signal (PBM E-score (-0.5 to 0.5)) [2] of 0.492.

For “ACTAAAAC (double strand) [8-mer ACTAAAAC]”, the binding signal (PBM E-score (-0.5 to 0.5)) [2] was 0.487.

With “GCGGATTA (double strand) [8-mer GCGGATTA]” the binding signal (PBM E-score (-0.5 to 0.5)) [3] was 0.491, the binding signal (PBM E-score (-0.5 to 0.5)) [4] was 0.491 and the binding signal (PBM E-score (-0.5 to 0.5)) [5] was 0.494.

“ATAAAACC (double strand) [8-mer ATAAAACC]” gave a binding signal (PBM E-score (-0.5 to 0.5)) [2] of 0.495.

“GCTAATCC (double strand) [8-mer GCTAATCC]” showed a binding signal (PBM E-score (-0.5 to 0.5)) [3] of 0.493, a binding signal (PBM E-score (-0.5 to 0.5)) [4] of 0.49 and a binding signal (PBM E-score (-0.5 to 0.5)) [5] of 0.497.

“AGGTTTTA (double strand) [8-mer AGGTTTTA]” gave a binding signal (PBM E-score (-0.5 to 0.5)) [2] of 0.496.

Work on “GCAATTAA (double strand) [8-mer GCAATTAA]” yielded a binding signal (PBM E-score (-0.5 to 0.5)) [1] of 0.473.

For “GGATTAAC (double strand) [8-mer GGATTAAC]”, the binding signal (PBM E-score (-0.5 to 0.5)) [3] was 0.49, the binding signal (PBM E-score (-0.5 to 0.5)) [4] was 0.492 and the binding signal (PBM E-score (-0.5 to 0.5)) [5] was 0.495.

Sequence “GGGATTAA (double strand) [8-mer GGGATTAA]” has a binding signal (PBM E-score (-0.5 to 0.5)) [3] of 0.494, a binding signal (PBM E-score (-0.5 to 0.5)) [4] of 0.493 and a binding signal (PBM E-score (-0.5 to 0.5)) [5] of 0.496.

“GGTTTTAA (double strand) [8-mer GGTTTTAA]” showed a binding signal (PBM E-score (-0.5 to 0.5)) [2] of 0.498.

For “GCTATTAA (double strand) [8-mer GCTATTAA]”, the binding signal (PBM E-score (-0.5 to 0.5)) [1] was 0.467.
